From US20090192048A1, “METHOD OF PRODUCING A […] AGENT FOR BINDING A LIGAND” (priority 2005, published 2009)
Ends that are not written are not given here.

Tests used:
Format in all cases: physicochemical
[1] = Retention of peptides 2DOS-1 to 2DOS-16 on a hydrophobic surface (polypropylene microtitre plate wells), water wash; settings: 400V scan; for Initial fluorescence (×10^3): 100 μl of 10 μM peptide before drying and washing; for Recovered fluorescence (×10^3): dried, washed ten times with 250 μl water, resuspended
Experimental: The retention of peptides 2DOS-1 to 2DOS-16 on a hydrophobic surface (the wells of a polypropylene microtitre plate) was then investigated.
(§1) 10 mM tris-HCl (pH 8.0) in 50% (v/v) aqueous acetonitrile was used as the solvent for the peptides and for TAMRA.
100 μl aliquots of 10 μM peptides 2DOS-1 to 2DOS-16 and 10 μM TAMRA were placed in the wells of a Costar microtitre plate as shown in FIG. 13:
(§2) The microtitre plate was imaged at 200 μm resolution on a Typhoon Trio Plus variable mode imager (Amersham Biosciences) with the green (532 nm) laser and the 580 BP 30 filter at the PMT voltages indicated below and at normal sensitivity. The scan height was set at +3 mm and the sample was pressed during scanning.
The peptides were allowed to evaporate to dryness overnight in the dark and the microtitre plate was again scanned as described above.
The wells were then washed ten times with 250 μl of water.
The residual surface-bound peptides were finally resuspended in 100 μl of 10 mM tris-HCl (pH 8.0) in 50% (v/v) aqueous acetonitrile and the microtitre plate was again scanned as described above.
(§3) The fluorescence images were analysed using ImageQuant TL v2003.03 (Amersham Biosciences).
Quantification data (using the data from the 400V scan) is given in Table 2 and shown graphically in FIG. 15.

[2] = Retention of peptides in V-bottomed polypropylene wells; settings: V-bottom wells, 500V scan; for Untreated fluorescence: unwashed; for Retained fluorescence: washed 15 minutes in 1 M NaCl in 10 mM tris-HCl (pH 8.0)
Experimental: (§4) The retention of peptides 2DOS-1 to 2DOS-16 (see above) on polypropylene wells of different geometries was investigated:
as §1
(§5) 1 μl aliquots of 10 μM peptides 2DOS-1 to 2DOS-16 and 10 μM TAMRA were pipetted into the wells of a Costar V-bottomed polypropylene microtitre plate and a Greiner flat-bottomed polypropylene microtitre plate according to the following scheme as shown in FIG. 22:
(§6) The peptide samples were allowed to evaporate to dryness in the dark.
(§7) The peptide samples in the top two rows of the microtitre plates were then incubated for 15′ minutes at room temperature in 250 μl of 1 M NaCl in 10 mM tris-HCl (pH 8.0).
(§8) After incubation, the wash buffer was pipetted up and down eight times in the well before removing the supernatant.
(§9) The washed and untreated peptide samples were then resuspended in 50 μl of 10 mM tris-HCl (pH 8.0) in 50% (v/v) aqueous acetonitrile.
as §2, with “plates were” for “plate was”, “the platen” for “+3 mm”, “during,” for “during”
as §3

[3] = Retention of peptides on Greiner polypropylene V-bottom wells; settings: 400V scan; for Untreated fluorescence: unwashed; for Retained fluorescence: washed 15 minutes in 1 M NaCl in 10 mM tris-HCl (pH 8.0)
Experimental: (§10) The retention of peptides 2DOS-1 to 2DOS-16 (see above) on polypropylene and polystyrene surfaces was compared:
(§11) 5 mM tris-HCl (pH 8.0) in 75% (v/v) aqueous acetonitrile was used as the solvent for the peptides and for TAMRA.
(§12) 20 μl aliquots of 5 μM peptides 2DOS-1 to 2DOS-16 and 5 μM TAMRA were pipetted into the wells of a Costar V-bottomed polypropylene microtitre plate, a Greiner V-bottomed polypropylene microtitre plate, and a Greiner V-bottomed polystyrene microtitre plate according to the scheme shown in FIG. 26:
as §6
(§13) The peptide samples in the top two rows of the microtitre plates were then incubated for 15 minutes at room temperature in 250 μl of 1 M NaCl in 10 mM tris-HCl (pH 8.0).
as §8, §9
as §2, with “plates were” for “plate was”
as §3

[4] = Retention of peptides on Greiner polystyrene V-bottom wells; settings: 400V scan; for Untreated fluorescence: unwashed; for Retained fluorescence: washed 15 minutes in 1 M NaCl in 10 mM tris-HCl (pH 8.0)
Experimental: as §10, §11, §12, §6, §13, §8, §9
as §2, with “plates were” for “plate was”
as §3

[5] = Retention of peptides in flat-bottomed polypropylene wells; settings: flat-bottom wells, 500V scan; for Untreated fluorescence: unwashed; for Retained fluorescence: washed 15 minutes in 1 M NaCl in 10 mM tris-HCl (pH 8.0)
Experimental: as §4, §1, §5, §6, §7, §8, §9
as §2, with “plates were” for “plate was”, “the platen” for “+3 mm”, “during,” for “during”
as §3

[6] = Retention of peptides on Costar polypropylene V-bottom wells; settings: 400V scan; for Untreated fluorescence: unwashed; for Retained fluorescence: washed 15 minutes in 1 M NaCl in 10 mM tris-HCl (pH 8.0)
Experimental: as §10, §11, §12, §6, §13, §8, §9
as §2, with “plates were” for “plate was”
as §3

| Substance | Initial fluorescence (×10^3) [1] | Recovered fluorescence (×10^3) [1] | Percent retention [2] | Untreated fluorescence [2] | Retained fluorescence [2] | Percent retention [3] | Untreated fluorescence [3] | Retained fluorescence [3] | Percent retention [4] | Untreated fluorescence [4] | Retained fluorescence [4] | Percent retention [5] | Untreated fluorescence [5] | Retained fluorescence [5] | Percent retention [6] | Untreated fluorescence [6] | Retained fluorescence [6] |
| --- | --- | --- | --- | --- | --- | --- | --- | --- | --- | --- | --- | --- | --- | --- | --- | --- | --- |
| N-TAMRA-Asp-Ser- Asp-Ser-Asp-Ser- Asp-C ({TAMRA}-DSDSDSD) [Peptide 2DOS-15] | 30,845 ×10^3 | 2 ×10^3 | 1% | 10,493,100 | 122,851 | 1% | 4,771,265 | 65,142 | 1% | 868,334 | 5,116 | 1% | 15,290,885 | 104,523 | 1% | 6,488,130 | 50,584 |
| N-TAMRA-Asp-Phe- Ala-Phe-Ser-Phe- Lys-C ({TAMRA}-DFAFSFK) [Peptide 2DOS-6] | 33,853 ×10^3 | 1,455 ×10^3 | 39% | 9,141,290 | 3,527,116 | 22% | 3,889,995 | 849,582 | 25% | 666,352 | 167,118 | 36% | 14,539,109 | 5,256,539 | 22% | 5,733,046 | 1,256,204 |
| N-TAMPA-Asp-Asp- Asp-Ala-Asp-Ser- Asp-Lys-Asp-C ({TAMRA}-DDDADSDKD) [Peptide 2DOS-4] | 32,313 ×10^3 | 0 ×10^3 | 2% | 8,265,596 | 159,080 | 1% | 3,937,734 | 50,669 | 1% | 783,885 | 6,714 | 2% | 11,885,905 | 198,507 | 1% | 5,661,181 | 74,143 |
| N-TAMRA-Phe-Asp- Phe-Asp-Phe-Asp- Phe-Asp-Phe-C ({TAMRA}-FDFDFDFDF) [Peptide 2DOS-10] | 28,479 ×10^3 | 2,884 ×10^3 | 33% | 8,445,090 | 2,773,876 | 22% | 3,043,118 | 654,623 | 17% | 602,771 | 100,265 | 39% | 13,661,609 | 5,353,630 | 24% | 6,043,214 | 1,439,375 |
